This data set deals with CC(=O)OC[C@H](N)C(=O)O. As to the kind of experiment: purified protein. The note with it: 30 mM Na2S, MOPS, 37 °C, no glycerol, cooperative.

Here are results for one substance from paper doi:10.1101/2025.03.26.645513v1.

In turn, NgCysK (Neisseria gonorrhoeae FA 1090) displayed a K0.5 of 1.541 ± 0.306 mM.
